Measured values reported in ChEMBL document CHEMBL3758119, “Functionalized imidazolium and benzimidazolium salts as paraoxonase 1 inhibitors: Synthesis, characterization and molecular docking studies” (Bioorg Med Chem, 2016).

Substrate: CCCCn1cc[n+](Cc2cc(=O)oc3cc(C)cc(C)c23)c1
Conditions: Homo sapiens
Description: Activity of human serum PON1 using paraoxon as substrate by Lineweaver-Burk plot analysis

B1: Serum paraoxonase/arylesterase 1 (Homo sapiens), P27169 (protein)
chain: MAKLIALTLLGMGLALFRNHQSSYQTRLNALREVQPVELPNCNLVKGIETGSEDLEILPNGLAFISSGLKYPGIKSFNPNSPGKILLMDLNEEDPTVLELGITGSKFDVSSFNPHGISTFTDEDNAMYLLVVNHPDAKSTVELFKFQEEEKSLLHLKTIRHKLLPNLNDIVAVGPEHFYGTNDHYFLDPYLQSWEMYLGLAWSYVVYYSPSEVRVVAEGFDFANGINISPDGKYVYIAELLAHKIHVYEKHANWTLTPLKSLDFNTLVDNISVDPETGDLWVGCHPNGMKIFFYDSENPPASEVLRIQNILTEEPKVTQVYAENGTVLQGSTVASVYKGKLLIGTVFHKALYCEL
Question: B1 was tested. Which Km did it give?
Answer: 40.6 µM
